Assay results from a protein production outcome set (Wang et al. 2014).

Assay: label from the status in PepcDB records

MRDPVSRLPNREQFQSDLYDLADENPGERRVLVLVDAVDMTVAHELTLAMGLAPFETIVRFLAQQLLAYLGRHVRVYHVSVKRFGFLLPAAPGIERFLESLVRRLRRQPPGLELPMIPGVCAGTVEFSTDRDAVPDVLRKAMFALELATLNRSTWAPYDVVRLEHHHHHH
protein production: failed

MRFGRFLAVVACATLLAACASTPTPPAGELSGTPTALESGPKKDPLNTLNSTGRAGTLSRSTVVNVDQSSVDWLRGPSSDIWDRIRKGFAMPDLEGTLVDDRTQWYAARPDYMERMVGRSSRYLYHIVEELERRKMPTELALLPFVESAFNPQAESTAKAAGMWQFIPSTGKTYNLKQNMFRDERRDVLASTDAALDYLQRLYDMFGDWQLALAAYNWGEGAVSRAIARNQARGLPTDYASLTMPTETRYYVPKLQAVKNIIANPAAYGVRLPEIPDHPYFVTVTTSRDIDVALAAKLANMPLDEFKALNPSFNRPVILGAANPQILLPFENAERFQYNLNTYRGGLSSWTAVTVDSRERVESLAARLNVDVDTLREINRIPKGMRLKAGSTVMIPRTERHDQDISASLVDTAMLAVEPDVPDAKRVVVRAGRKDTVSTVARRYGVSVKQVQSWNKLSGSKLVAGQSLVLMLRPNSAAAMRAERAGDEDDTPAKAAPHGKSGGKTQAVAKSEKYDKVEKSSRSAKAEPRKRVVVEASPHSSTSKSSGKSATRESKSSPTPATKSKSSRAQ
protein production: failed

MGKSIPVKTGLRGASAAVAGFIKSSKPIRPISSMDSSDKDSSSTTTTSETTRRFVPLSSVVSDCAKRWFKDTLEEAKAGNITMQVLLGQMYYSGYGVPKDARKVSSLFPPFQSLLFQVLGYNASDSDSESD
protein production: failed

MARVLVDFQPVGRRVEVDAGQTILSAIQQLGLSLGAGGLTAPCGGRGLCGRCRVRIASGEVGEVNPAERRFLTPAQLEKGYRLACQATVIGPVKVEIPPESMLGVQKLQVEGLDIAVTPEPPVKRYNLPLSKTTIENPLPLWQQVTGELEATYGLDRPGVDFGLAREWKPMATEGECVVTVRGPEVINIYTGRLAPPPVGLAVDLGTTKVAGFLINLETGATLAADGIMNPQITYGEDVMARLGYALEGEEEYRRIQEVEIEGLNRLAATLAAKAGVATTDIEEAVIVGNTAMHHLLLHLPVEQLARAPYVPALTTPVEIKTRNLGLNLSPGAFVYLQPVIAGFVGGDHVAMILGSRIDEARKVTLGLDIGTNTEIVLSYGGKMLSCSCASGPAFEGAHIAQGMRAVTGAIAAVRLSDDGRDVFWESIGGVPPLGICGSGILDAVAELYRTGILNASGRLDLNHPRVRRPAGGGPPEFLLVPAAETGIDGDLVVTQKDINEIQLAKAAIATGTLLLLEAAGLTVKDLEEVVVAGAFGTHLKLESAITIGMFPNLPLTAFRQVGNAAGTGARLALLSLTERKRGEAIARQVGYLELMTRPSFHEVYVKSLLLP
protein production: failed

MGHHHHHHSHMSGEKTVVCKHWLRGLCKKGDQCEFLHEYDMTKMSECYFYSKFGECSNKECPFLHIDPESKI
protein production: not failed

MPKVYNSIVVDAPVERVWSRIRNFHDFSWAPSLIKSCKKVGGGGGYSVGARRLLNGEFLDTLIAYSEIERRIMYSMDEGPSPVSSGEIYNYVGNLHLLPVTIDDTTFVEWSGSWESASTEAVEYMNTVYRSLLADLAAEFTSESRRSEWIDQLEHHHHHH
protein production: not failed

ACKVLYSLGELNERFVPKTLKERVASIADVHFEHWNKYGDSVTATVNKADKSKDRTYKTECPLEFYDALPRVGEICYAYEIFLEPQFESCEYTEHMYLNLQTPRNYAILLRNKLPRLAEMPLFSNQGKLHVRVANAPLEVIIQNSEQLELLH
protein production: failed

MDLHGCAKNQVDAELIIGIMENLSWKNTSDPDEADLIIVNSCGFINSAKEESINAVLQAKAAHPKAKVLLAGCLAERYADILKNDLPEADGIFGNGNLSLLPQLIDSMFPKKTSDEKFIEKTLVPPQIGICGGERPKILNFPRSTYIKITEGCDNFCSFCAIPIIRGRLRSRPIKDICDEIKTFLKKSFYEFNLIGQDLAAYQTGKDDLSEDELHRENCSGLALLLKSISKIKGNFKIRLLYIHPDHFPLDILPIMTADKRFLPYFDIPFQSGAQKIIRAMNRNGAAEVYLDIIKNIREAFEKTNSPYGEPQIRTTFLVGFPGETDEDFNETIKFLKELRPLWSGGFTYSREEDTPSYSFKGKVPKKTAEARLAEIQNAQTSITEKKLDSFIGKEIEVLVEELIQAEDKTFLALGRAWFQAPEVDGAVVLNFNLNKKDIDGNPIAPGSIVKARIAARNGFDLEAVAV
protein production: failed

MSDIIDEVISSFKTSSIFINREYLLPDYIPDELPHREDQIRKIASILAPLYREEKPNNIFIYGLTGTGKTAVVKFVLSKLHKKFLGKFKHVYINTRQIDTPYRVLADLLESLDVKVPFTGLSIAELYRRLVKAVRDYGSQVVIVLDEIDAFVKKYNDDILYKLSRINSEVNKSKISFIGITNDVKFVDLLDPRVKSSLSEEEIIFPPYNAEELEDILTKRAQMAFKPGVLPDNVIKLCAALAAREHGDARRALDLLRVSGEIAERMKDTKVKEEYVYMAKEEIERDRVRDIILTLPFHSKLVLMAVVSISSEENVVSTTGAVYETYLNICKKLGVEAVTQRRVSDIINELDMVGILTAKVVNRGRYGKTKEIGLAVDKNIIVRSLIESDSRFADLWS
protein production: failed

MELLSIVIFGLLIVVSPSADFVLVFKNSAMHSRKAGMLTAIGIGAGVCVHISYSIIGISQLIANNAGLFSLVKYVGAAYLIYIGIAGLLSAKLTLDYGTQLIKPVENRKYIMQGFLCNVLNPKTMIFFLSVFSQLISSHSDSLAFVISYGVYIAVLHGIWFCIVAYLVTSAKATRVLKRFGHRINQACGVGLITFGVILSTND
protein production: failed

MLSGVGAPVGKQMLAGTEVAAMQINKAGGLLGREVELVIRDDKYNSSESVAVARELAGDGINLLLGGSQTVTALGLAPLAPELNMAVMIVAAAGMPVTHELFNPNIFRATANNYTQYSSLGRVLIEQNPDVRTWVSLAPDGDFGRDSALFFGKAVEKYAPGEKPTVLDTIYTQATATDFRTQINQLMSSDAEGLYIGIAASAQISFFQQARSVGLYDKFKAIGEVGNGDITGKAMGRNTHPNLWSVCHWIYNAEPFASNPVSKQLYEDYVTLKGDEMPSAQVAAGHRAAMAIFEGIRAAGSTETEAVLAAIEDVEFETVGGPVSFRKEDHQLVNTNYYSQMGPSREEPFFAFNKVVSIDAAEMIEPATPGKAFDISELPQLEHHHHHH
protein production: failed

MKKKDRYTGHRYAKPNRSSENDIYSNSDRYARTTGNKKYKKRKKKWSAKKKIIVTLCIILGIILMIAGIVFAYIKATLSQLGRVPLPEAPETLGISSEVAEKYKDLDVTNIALFGVDSREDNDIGRSDALMILSIDRVHNKIKLTSIARDTYVTVDGYGQTKINHAYAYEGPELAIKTINENFDMNIQGFVTVNFSQLAEIIDYLGGINIAVTEEEREVANRLIQELGVQCEPITESGESVHLTGDQAVIFARNRDTGGDSERTGRQRKVLSAMFDQAKAIDVTQYPGLINMVLSQSVTSLSDNDMLGIGTWAVTSGATMEQMSLPNENCNSSGEIIDGVWYYVYDLDLATDLLHDFIYEENSAD
protein production: failed

MTLFDGTPFEWAPGRIEVRARRECGASRKSLVVAAGVSYLARMIFSFDAFVTNALFDRSGRAMFALGDGTVRLQTDEGFVTVEAHGGPLGGAVLAAAVHPSGAGIVTGGDDGRVVWSRIEGGEVVATLIAEVKNKWIEHVAASAASGLIAFTVGKEVHVRDAADPAFARTFPHEKTVSGLAFEPKGRRLASATYGGAYLWYARIADQKPTVLKWAGSHIAVEFSPDGKFLISSMQENQLHGWRLSDGKDMRMGGYPSKIKSVAFFDKGNLLATAGASGAVIWPFAGANGPMGKEAAEIGFSRDSMVVRVAGIDPQPVCIAGQDSGKIWAAHMRNGRIETLKAEKGAPISALSVSADGKRLAWGDESGEAGVLEIPDLSGPRQFVGLEHHHHHH
protein production: failed

MISGFSMHSSAHYRQLLARLPQIAVAADQFEVLNSAKDFKSRILSLIASARQRIYLVALYLQDDEAGREILSALYAAKQRNPALDVKVFVDFHRAQRGLIGKGKQGGNHLMYQEMAARHEHQIAIYGVPVKGRELLGVLHLKGFIFDDTLLYSGASLNDIYLHQQDRYRFDRYHQITSPELTRSMVNYVDDLFLRSEAVQRLDRTDIPSAKQLKGPIRRFKHNLRLGQYRFDTMPVNSQEVAITPMSGLGKRGNQLNKMIRTLVRATEREIFICTPYFNPPKELNKDIEALLKRGCKVTIVVGDKTANDFFIPPEEKFSTIGGLPYLYETNLRKFAERNQHHIDAGRLNLMLWCCERNSYHLKGIFVDDEWALLTGNNLNPRAWALDLENGLLVYDRRHLLRPQFNAERENILANTKRISHFDQIEQIQDYPDQVRKLLARIHRVKAHILLKRII
protein production: failed

MTAIPRAPLILGLAGLIPFLWGALTYLSPAAQAWGAAALGPRFVGPYVQIAYGQIILAFMSGVLWGFATKADDRRAATGYVLAVLPALWAFFMTGGGPTGAAINLIFGFLGLLMLDAAFASWGLAPVWWMRLRLLLTAVVTICLAVGAFL
protein production: failed

MVQEEKAMEAINDALRALRKRHLLEEGAHAPAISALSKPLISQGSEWKEKTEKLETELQQCYKAQSRLSEQLVIEVAESRTSKAILQEKELLINDLQKELTQRREDCTRLQEELEEKTKTVDVLIAENLEIRSQLEEMTSRVQKAETENKMLIDRWMLQKMQDAERLNEANDLYEEMLAKLKANGLETLARQQVDGIVRRNEDGTDHFVESTIPSTCANRIHAHEGGCGSIVFEYNSGTLFTGGQDRAVKMWDTNSGTLIKSLYGSLGNILDMAVTHDNKSVIAATSSNNLFVWDVSSGRVRHTLTGHTDKVCAVDVSKFSSRHVVSAAYDRTIKLWDLHKGYCTNTVLFTSNCNAICLSIDGLTVFSGHMDGNLRLWDIQTGKLLSEVAGHSSAVTSVSLSRNGNRILTSGRDNVHNVFDTRTLEICGTLRASGNRLASNWSRSCISPDDDYVAAGSADGSVHVWSLSKGNIVSILKEQTSPILCCSWSGIGKPLASADKNGYVCTWT
protein production: failed

MSSKIFCKSWGAEYIAADVVRFRLWATGQQKVMLRLAGKDQEMQANGDGWFTLDVAGVTPGTEYNFVLSDGMVVPDPASRAQKTDVNGPSYVVDPGSYTWRNTGWKGSRWEQAVVYEMHTGTFTPEGTFRAAIAKLPYLAELGVTVIEVMPVAQFGGERGWGYDGVLLYAPHSAYGTPDDFKAFIDAAHGYGLSVVLDIVLNHFGPEGNYLPLLAPAFFHKERMTPWGNGIAYDVDAVRRYIIEAPLYWLTEYHLDGLRFDAIDQIEDSSARHVLVEIAQRIREDITDRPIHLTTEDSRNIISLHPRDQDGNAPLFTAEWNDDFHNAVHVFATGETQAYYNDFADAPEKHLARALAEGFAYQGEISPQTGEPRGVKSTGQPPVAFVDFIQNHDQVGNRAQGDRLITLAGAERTKVLLATLLLSPHIPLLFMGEEYGESRPFLFFTDFHGDLARAVREGRAKEFADHAGENVPDPNAPETFQRSKLNWKQQHSEEGKAWLAFTRELLLLRQKHIVPLLSAARESSGTVLQTAPGFIAVSWRFPGGTLSLALNISATTVLLPDLPGKTLFAWPNESTGSLSQHSLIVRLAQGESAS
protein production: not failed

MVPAPEAIRQALQERLLARLDHPDPLYRDLLQDYPRRGGKMLRGLLTVYSALAHGAPLEAGLEAATALELFQNWVLVHDDIEDGSEERRGRPALHRLHPMPLALNAGDAMHAEMWGLLAEGLARGLFPPEVLLEFHEVVRRTAYGQHLDLLWTLGGTFDLRPEDYFRMVAHKAAYYTAVAPLRLGALLAGKTPPAAYEEGGLRLGTAFQIVDDVLNLEGGEAYGKERAGDLYEGKRTLILLRFLEEAPPEERARALALLALPREAKPEAEVGWLLERLLASRALAWAKAEAKRLQAEGLALLEAAFQDLPGKEALDHLRGLLAALVERRA
protein production: not failed

LPLTDALRKALAEAPKHTANIARKRHILFIGKLMRDQDQEAILVLLDQLDASTRQYNERFHNLERWRDRLIAGDDADLEKFVIEYPDADRQQLRSLIRQAQHEVARNKP
protein production: failed

MTANAYVRARIDQTLKDDATAVLDRLGLTVSDVMRMMLTRIAREKALPIELTQPNAETLAAIEEARAIAAAGRNRFGTSEALFEALDAGKRLEHHHHHH
protein production: not failed
